Measured values: paper PMC5067487

Key:
Assay in all cases: ITC; peptide (100 uM stock in ddH2O) titrated into PadeB1 or variant (5-10 uM) in the sample cell; 50 mM Tris, 5 mM MgCl2, pH 8.0; 25 °C; One Set of Sites model; triplicate
[1] = molecular target: PadeB1 (Paenibacillus dendritiformis C454)
[2] = molecular target: PadeB1 N40A (Paenibacillus dendritiformis C454)
[3] = molecular target: PadeB1 I61A (Paenibacillus dendritiformis C454)
[4] = molecular target: PadeB1 D23A (Paenibacillus dendritiformis C454)
[5] = molecular target: PadeB1 D79A (Paenibacillus dendritiformis C454)
[6] = molecular target: PadeB1 W49A (Paenibacillus dendritiformis C454)
[7] = molecular target: PadeB1 Y38A (Paenibacillus dendritiformis C454)
[8] = molecular target: PadeB1 K28A (Paenibacillus dendritiformis C454)

Kd [1] [nM] | Kd [2] [nM] | Kd [3] [nM] | Kd [4] [nM] | Kd [5] [nM] | Kd [6] [nM] | Kd [7] [nM] | Kd [8] [nM] | Substance
4 | – | – | – | – | – | – | – | full-length precursor peptide GP-PadeA
5.3 | 16 | 73 | 2.4 | 150 | 140 | 6.2 | 2.7 | leader peptide of PadeA
